Assay results published in patent US20160362487A1 (Regeneron, published 2016).

Tests used:
[1] = biological target: T1, cynomolgus monkey IL-33 expressed with a C-terminal hexahistidine tag (cynomolgus monkey); assay: BLI; captured MfIL-33-6His, mAb-1 step with Buffer
T1 construct: also called MfIL-33-6His; Mf-IL-33-6His
T1 chain: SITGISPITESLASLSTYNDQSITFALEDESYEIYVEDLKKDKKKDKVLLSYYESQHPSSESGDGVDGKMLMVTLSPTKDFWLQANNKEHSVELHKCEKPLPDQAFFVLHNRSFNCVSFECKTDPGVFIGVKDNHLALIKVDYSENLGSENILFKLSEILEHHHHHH
Method in brief: (§1)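 After MfIL-33-6His capture, biosensors took up 50 μg/mL mAb-1 for 5 min, then 50 μg/mL mAb-2 for 4 min, with buffer washes between steps. Peak response per step was recorded by label-free BLI. Run at 25 °C in HBS-ET kinetics buffer (pH 7.4, 0.1 mg/ml BSA).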

[2] = biological target: T1, cynomolgus monkey IL-33 expressed with …; assay: BLI; mAb-1 on captured MfIL-33-6His
Method in brief: as §1

[3] = biological target: T1, cynomolgus monkey IL-33 expressed with …; assay: cell-based or functional assay
[4] = biological target: T2, human IL-33 (R&D Systems, #3625-IL-010/CF) (human, UniProt O95760 112-270); assay: cell-based or functional assay
T2 sequence (looked up): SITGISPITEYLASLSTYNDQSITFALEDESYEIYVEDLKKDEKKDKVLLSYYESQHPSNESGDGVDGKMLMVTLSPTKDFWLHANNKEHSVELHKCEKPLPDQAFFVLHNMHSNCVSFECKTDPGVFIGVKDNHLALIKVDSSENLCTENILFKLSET

[5] = biological target: T3, pre-formed complex of hIL-33 and captured hST2-MMH (human, UniProt O95760 112-270); assay: SPR 25C, 100 nM mAb over hIL-33/hST2-MMH complex
T3 construct: Ligand-receptor complex on the sensor: hST2-MMH captured by anti-myc mAb and saturated with 100 nM hIL-33; also called hIL-33 pre-complexed with hST2-MMH
Method in brief: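 By SPR at 25 °C in HBS-ET, pH 7.4, captured hST2-MMH was saturated with 100 nM human IL-33 for 3 min. Then 100 nM antibody was injected for 3 min, and the binding response 3 min after antibody injection was recorded.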

[6] = biological target: T1, cynomolgus monkey IL-33 expressed with …; assay: SPR 25C pH7.4, mAb captured
Method in brief: (§2)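 KD and dissociative half-life were calculated from ka and kd, obtained by 1:1 fitting of SPR sensorgrams. The analyte flowed over captured anti-IL-33 antibodies for 4 min, then dissociated 10 min in pH 7.4 ADA buffer with EDTA and Tween-20.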

[7] = biological target: T2, human IL-33 (R&D Systems, …); assay: SPR 25C pH7.4, mAb captured
Method in brief: as §2

[8] = biological target: T1, cynomolgus monkey IL-33 expressed with …; assay: BLI; captured MfIL-33-6His, mAb-1 step with Isotype control
Method in brief: as §1

B1: H4H9676P (antibody, human IgG4, V domains shown)
VH: EVQLVESGGGLVQPGGSLRLSCSASGFTFSSYAMNWVRQAPGKGLEWVTAISGSGGGTYYADSVKGRFTISRDNSKNSLFLQLNSLRAEDTAVYYCAKQTYTSSWYGGFDIWGQGTMVTVSS
VL: DIQMTQSPSSVSASVGDRVTITCRASQGFSSWLAWYQQIPGKAPKLLIYAASRLQSGVPSRFRGSGSGTDFTLTISSLQPEDFATYYCQQANSFPLTFGGGTKVEIK
notes: Human IgG4 Fc (H4H)
Q: Which results are given for B1?
A: mAb-2 Binding to the Pre-complex of mAb-1 & MfIL-33-6xHis [1]: 0.29 nm; mAb-1 Binding (nm) [2]: 0.62 nm; IC50, inhibition of 5 pM MfIL-33-6His activation of HEK293/hST2/NFkB-luciferase cells [3]: 8.4e-09 M; IC50, inhibition of 10 pM hIL-33 activation of HEK293/hST2/NFkB-luciferase cells [4]: 3.5e-11 M; Antibody Binding Response (RU) [5]: -1 RU; Kd [6]: 4.84 nM; koff [6]: 0.00412 s⁻¹; kon [6]: 852000 M⁻¹ s⁻¹; t½ [6]: 2.8 min; Kd [7]: 0.334 nM; koff [7]: 0.000345 s⁻¹; kon [7]: 1.03e+06 M⁻¹ s⁻¹; t½ [7]: 33 min; mAb-2 Binding to the Pre-complex of mAb-1 & MfIL-33-6xHis [8]: 0.25 nm

B2: H1M9559N (antibody, mouse IgG1, V domains shown)
VH: QVQLVESGGGVVQPGRSLRLSCAASGFTFSSYGMHWVRQAPGKGLEWVAVIWYDGRNKYYTDSVKGRFTISRDNSKNTLYLQMDSLRAEDTAVYYCARERYISSYYGGFDPWGQGALVTVSS
VL: DIQMTQSPSSVSASVGDRVTITCRASQGISSWLAWYQQKPGKAPKVLIYAASSLQSGVPSRFSGSGSGTDFTLTISSLQPEDFATYYCQQANSFPFTFGPGTKLDIK
notes: Human variable domains, mouse IgG1 Fc (H1M)
Q: What does the source list for B2?
A: mAb-2 Binding to the Pre-complex of mAb-1 & MfIL-33-6xHis [1]: 0.25 nm; mAb-1 Binding (nm) [2]: 0.5 nm; IC50, inhibition of 5 pM MfIL-33-6His activation of HEK293/hST2/NFkB-luciferase cells [3]: 4.9e-08 M; IC50, inhibition of 10 pM hIL-33 activation of HEK293/hST2/NFkB-luciferase cells [4]: 2e-09 M; Antibody Binding Response (RU) [5]: -4 RU; Kd [6]: 3.82 nM; koff [6]: 0.00123 s⁻¹; kon [6]: 321000 M⁻¹ s⁻¹; t½ [6]: 9 min; Kd [7]: 0.678 nM; koff [7]: 0.000274 s⁻¹; kon [7]: 404000 M⁻¹ s⁻¹; t½ [7]: 42 min; mAb-2 Binding to the Pre-complex of mAb-1 & MfIL-33-6xHis [8]: 0.21 nm
